Measured values published in patent US20200283523A1 (WUXI BIOLOGICS IRELAND, published 2020).

Key:
FcRn = FcRn (UniProt P55899 24-297; P61769 21-119, limits assumed); test: SPR (Biacore) at pH 6.0, antibody immobilized, FcRn injected, steady state fit
Procedure: Antibody binding affinity to FcRn was detected using Biacore T200 (or Biacore 8K). Each antibody was immobilized on CMS sensor chip (GE). FcRn at different concentrations in running buffer (50 mM Na2HPO4/NaH2PO4, 150 mM NaCl, 0.05% Tween20, pH 6.0) were injected over the sensor chip at a flow rate of 30 uL/min for an association phase of 60 s, followed by 60 s dissociation. The chip was then regenerated by 1×PBS (pH 7.4) after each binding cycle.
The binding of W3438-T3U4.E17-1.uIgG4.SP to FcRn was tested by SPR at pH 6.0.

human CD19 = molecular target: T1, human CD19 (human, UniProt P15391 20-556); test: flow cytometry on Ramos cells
T1 construct: whole, on cells; also called CD19 on Ramos cells; CD19 on Raji cells
T1 sequence (looked up): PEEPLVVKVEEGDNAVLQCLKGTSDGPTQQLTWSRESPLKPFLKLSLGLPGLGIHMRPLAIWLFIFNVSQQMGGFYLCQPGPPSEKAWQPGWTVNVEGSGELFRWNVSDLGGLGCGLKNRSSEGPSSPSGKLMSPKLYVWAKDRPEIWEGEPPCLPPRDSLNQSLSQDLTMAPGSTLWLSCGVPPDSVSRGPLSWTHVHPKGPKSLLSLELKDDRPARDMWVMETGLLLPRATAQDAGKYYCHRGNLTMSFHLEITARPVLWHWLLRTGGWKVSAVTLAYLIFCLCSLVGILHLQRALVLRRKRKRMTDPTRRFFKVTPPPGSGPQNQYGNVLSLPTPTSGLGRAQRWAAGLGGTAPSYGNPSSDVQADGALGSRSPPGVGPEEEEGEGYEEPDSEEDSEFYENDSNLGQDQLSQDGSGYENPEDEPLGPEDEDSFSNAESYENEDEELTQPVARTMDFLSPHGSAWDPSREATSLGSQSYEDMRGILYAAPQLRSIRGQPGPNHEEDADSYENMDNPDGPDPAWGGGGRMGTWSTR

Chain of FcRn (P55899 24-297 limits assumed, chain 1 of 2): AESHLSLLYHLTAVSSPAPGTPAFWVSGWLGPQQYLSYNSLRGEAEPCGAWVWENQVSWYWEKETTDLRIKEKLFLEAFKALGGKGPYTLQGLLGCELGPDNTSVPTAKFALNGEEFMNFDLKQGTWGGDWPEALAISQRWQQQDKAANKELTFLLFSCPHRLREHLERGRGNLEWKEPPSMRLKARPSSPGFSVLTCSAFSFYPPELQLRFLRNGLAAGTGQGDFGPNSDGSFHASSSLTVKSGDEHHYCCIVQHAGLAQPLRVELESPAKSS
Chain of FcRn (P61769 21-119 limits assumed, chain 2 of 2): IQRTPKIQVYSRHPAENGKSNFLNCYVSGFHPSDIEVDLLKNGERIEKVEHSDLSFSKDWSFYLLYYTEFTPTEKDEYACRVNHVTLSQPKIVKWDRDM

B1: W3438-T3U4.E17-1.uIgG4.SP (bispecific antibody)
light 1: DIVMTQSPDSLAVSLGERATINCKSSQSLLNSRTRKNYLAWYQQKPGQPPKLLIYWASTRQSGVPDRFSGSGSGTDFTLTISSLQAEDVAVYYCTQSHTLRTFGGGTKVEIKPDIQNPDPAVYQLRDSKSSDKSVCLFTDFDSQTQVSQSKDSDVYITDKCVLDMRSMDFKSNSAVAWSQKSDFACANAFQNSIIPEDTFFPSPESS
heavy 1: QVQLVQSGAEVKKPGSSVKVSCKASGFAFTDYYIHWVRQAPGQGLEWMGWISPGNVNTKYNENFKGRVTITADKSTSTAYMELSSLRSEDTAVYYCARDGYSLYYFDYWGQGTLVTVLEDLKNVFPPEVAVFEPSEAEISHTQKATLVCLATGFYPDHVELSWWVNGKEVHSGVCTDPQPLKEQPALQDSRYALSSRLRVSATFWQNPRNHFRCQVQFYGLSENDEWTQDRAKPVTQIVSAEAWGRYGPPCPPCPAPEFLGGPSVFLFPPKPKDTLMISRTPEVTCVVVDVSQEDPEVQFNWYVDGVEVHNAKTKPREEQFNSTYRVVSVLTVLHQDWLNGKEYKCKVSNKGLPSSIEKTISKAKGQPREPQVYTLPPCQEEMTKNQVSLWCLVKGFYPSDIAVEWESNGQPENNYKTTPPVLDSDGSFFLYSRLTVDKSRWQEGNVFSCSVMHEALHNHYTQKSLSLSLGK
light 2: DIQLTQSPSFLSASVGDRVTITCSASSTVNYMHWYQQKPGKAPKLLIYSTSNLASGVPSRFSGSGSGTEFTLTISSLQPEDFATYYCHQWSSYPYTFGQGTKLEIKRTVAAPSVFIFPPSDEQLKSGTASVVCLLNNFYPREAKVQWKVDNALQSGNSQESVTEQDSKDSTYSLSSTLTLSKADYEKHKVYACEVTHQGLSSPVTKSFNRGEC
heavy 2: QMQLVQSGPEVKKPGTSVKVSCKASGYAFTSYNMYWVRQARGQRLEWIGYIDPYNGDTTYNQKFKGRVTITRDMSTSTAYMELSSLRSEDTAVYYCLTTAYAMDYWGQGTLVTVSSASTKGPSVFPLAPCSRSTSESTAALGCLVKDYFPEPVTVSWNSGALTSGVHTFPAVLQSSGLYSLSSVVTVPSSSLGTKTYTCNVDHKPSNTKVDKRVESKYGPPCPPCPAPEFLGGPSVFLFPPKPKDTLMISRTPEVTCVVVDVSQEDPEVQFNWYVDGVEVHNAKTKPREEQFNSTYRVVSVLTVLHQDWLNGKEYKCKVSNKGLPSSIEKTISKAKGQPREPQVCTLPPSQEEMTKNQVSLSCAVKGFYPSDIAVEWESNGQPENNYKTTPPVLDSDGSFFLVSRLTVDKSRWQEGNVFSCSVMHEALHNHYTQKSLSLSLGK
notes: Bispecific, bivalent: one anti-CD3 arm with TCR constant domains and one native anti-CD19 Fab arm, IgG4 S228P Fc with knobs-into-holes; also called WBP3438; CD3×CD19 bispecific antibody; copies: 1 + 1 + 1 + 1
B1 was tested, and the Kd (FcRn) was 2.58 µM and the EC50 (human CD19) was 0.0156 µM.
